From US10781452B2, “FLT3 receptor antagonists for the treatment or the prevention of pain disorders” (INSTITUT NATIONAL DE LA SANTE ET DE LA RECHERCHE MEDICALE …, priority 2010, dated 2020)

Key:
TRPV1 = target: T1, TRPV1 (Mus musculus, UniProt Q704Y3); assay: FL-induced mechanical hyperalgesia with intraplantar TRPV1 inhibitor; assay type: in vivo, mice; settings: intraplantar 10 μl at 30 μg/ml, one hour before FL injection; 12 h
T1 construct: from tissue; host or cells: living mice, hindpaw
Experimental: (§1) Mechanical withdrawal thresholds: The sensitivity to punctuate mechanical stimuli was assessed using the dynamic plantar aesthesiometer (Bioseb, France). Each mouse was placed in a Plexiglass chamber. Sixty minutes later, a mechanical stimulus (a small-diameter blunt metallic filament) was applied to the plantar surface with an increasing force and the paw withdrawal latencies were measured. For each point, mice were tested three times and the responses for each paw were averaged.
To investigate the potential role(s) of FL in modulating noxious sensitivity through the activation of TRPV1 receptor in vivo, we tested the effect of the TRPV1 inhibitor sb-366791 on the FL-induced mechanical hyperalgesia.

mice hindpaws [1] = assay: Thermo-nociceptive testing (radiant heat paw withdrawal) after hindpaw injection of FL or NGF; assay type: in vivo; settings: for paw withdrawal latency drop (radiant heat stimulus), thermal hyperalgesia: 12 H after hindpaw injection of 100 ng/10 μl, vs vehicle-injected hindpaws
Experimental: (§2) Animals: Adult Swiss mice (8-10 week old) (CERJ, Le Genest St Isle, France) were used according to the guidelines of the International Association for the Study of Pain. Mice were housed in cages with a 12/12 hr light/dark cycle and fed food and water ad libitum.
(§3) Behavioral experiments: Behavioral responsiveness of the mice was tested following one week of habituation to the testing environment and the observer.
Thermo-nociceptive testing: Nociceptive threshold to acute thermal stimulation was measured using the paw retrieval test (Bioseb, France). Focused light from 12.5 W projection bulb was applied to the middle of the plantar surface of the hind paw (3 mm diameter). The projection bulb was turned off as soon as the mouse removed its paw, and a digital timer connected in series measured the paw withdrawal latency to an accuracy of 0.1 s. We used a cut-off latency of 15 s to avoid the possibility of tissue damage. For each point, mice were tested three times and the responses for each paw were averaged.
FL produces thermal and mechanical hyperalgesia in vivo: To investigate the potential role(s) of FL in modulating noxious heat sensitivity in vivo, we first injected FL (100 ng/10 μl) into mice hindpaws, and latency to ipsilateral paw withdrawal from a radiant heat stimulus was measured. […] At 12 H after injection, FL induced a significant thermal hyperalgesia (latency drop around 30%) compared to control mice hindpaws injected with vehicle (p<0.001) (FIG. 1A). For comparison, NGF (100 ng/10 μ) induced a significant latency drop of 25% at 12 H (FIG. 1A).

mice hindpaws [2] = assay: Mechanical withdrawal (von Frey hair filaments) after hindpaw injection of FL or NGF; assay type: in vivo
Experimental: as §2, §3, §1
We next tested the role of FL in modulating noxious mechanical sensitivity in vivo. […] For comparison, NGF (100ng/10μ1) induced a foot withdrawal response decrease of 30% at 12 H (P<0.001) (FIG. 1B).

[3] = system: TRPV1 positive sensory neurons; assay: FL potentiation of capsaicin [Ca2+]i response (Fura-2 imaging) in DRG neurons; assay type: cell-based, mice
Experimental: DRG neurons primary culture: Primary neuronal cultures were established from lumbar (L4 to L6) dorsal root ganglia (DRG) of adult mice as previously described (Boudes et al, 2009). Ganglia were treated twice with collagenase A (1 mg/ml, Roche Diagnostic, France) for 45 minutes (37° C.) and then with trypsin-EDTA (0.25%, Sigma, St Quentin Fallavier, France) for 30 minutes. They were mechanically dissociated by passing 8 to 10 times through the tip of a fire-polished Pasteur pipette in neurobasal (Life Technologies, Cergy Pontoise, France) culture medium supplemented with 10% foetal bovine serum and DNase (50 U/ml, Sigma, St Quentin Fallavier, France). Isolated cells were collected by centrifugation and suspended in neurobasal culture medium supplemented with 2% B27 (Life Technologies), 2 mM glutamine, penicillin/streptomycin (20 U/ml, 0.2 mg/ml). Dissociated neurons were plated on poly-D,L-ornithine (0.5 mg/ml)-laminin (5 μg/ml)-coated glass coverslips at a density of 2500 neurons per well and were incubated in an incubator with a humidified 95% air/5% CO2 atmosphere. Two hours after plating, the culture medium was carefully removed and replaced to eliminate dead cells and tissue debris. The cells were maintained in culture at 37° C. until experiments were performed. […]
Cells were imaged with a inverted microscope equipped with a NEOFLUAR 25×0.8 objective lens (Axiovert 200, Zeiss, Le Pecq, France) and a CCD camera (Cool SNAP ES, Roper Scientific, France). […] A Fura filter cube with 400 long pass dichroic and D510/40m emission band pass was used to collect fluorescence emissions separately for each wavelength. Images were acquired and analyzed with Metafluor software (Molecular Devices). Changes in intracellular calcium concentrations ([Ca^2+]i ) were monitored as changes of the ratio of the fura-2-fluorescence intensity recorded at 340 nm and 380 nm excitation wavelengths (ΔF340/380). […]
Each neuron was stimulated three times by capsaicin at 4-5 min interval. […] Response areas were calculated as a measure of total Ca^2+ influx. […]

[4] = 12H after hindpaw injection of 100 ng/10 μl
[5] = all capsaicin responders, potentiated and unaffected

T1 sequence (Q704Y3 whole entry): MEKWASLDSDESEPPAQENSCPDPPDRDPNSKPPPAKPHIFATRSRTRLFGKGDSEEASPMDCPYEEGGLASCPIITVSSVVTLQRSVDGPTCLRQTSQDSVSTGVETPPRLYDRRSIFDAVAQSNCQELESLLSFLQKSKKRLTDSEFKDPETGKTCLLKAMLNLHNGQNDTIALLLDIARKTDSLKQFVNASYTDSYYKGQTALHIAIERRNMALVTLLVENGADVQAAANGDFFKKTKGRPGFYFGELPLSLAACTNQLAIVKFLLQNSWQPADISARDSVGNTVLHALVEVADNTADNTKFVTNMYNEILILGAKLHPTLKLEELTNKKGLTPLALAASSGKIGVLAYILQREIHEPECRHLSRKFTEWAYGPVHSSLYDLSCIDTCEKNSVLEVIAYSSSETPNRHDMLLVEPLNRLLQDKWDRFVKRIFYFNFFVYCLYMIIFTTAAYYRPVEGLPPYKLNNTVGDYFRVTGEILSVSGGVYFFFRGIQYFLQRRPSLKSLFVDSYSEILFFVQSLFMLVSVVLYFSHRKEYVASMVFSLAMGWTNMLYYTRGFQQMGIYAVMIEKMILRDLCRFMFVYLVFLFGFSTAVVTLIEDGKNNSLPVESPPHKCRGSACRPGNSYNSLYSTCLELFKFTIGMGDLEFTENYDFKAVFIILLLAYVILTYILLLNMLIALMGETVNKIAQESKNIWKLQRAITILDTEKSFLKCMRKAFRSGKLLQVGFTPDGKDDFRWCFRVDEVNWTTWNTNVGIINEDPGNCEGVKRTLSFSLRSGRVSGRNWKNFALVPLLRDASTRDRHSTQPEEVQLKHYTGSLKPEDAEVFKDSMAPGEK

Molecule	foot withdrawal response to von Frey hair filaments after FL injection, vs control mice (TRPV1)	paw withdrawal latency drop (radiant heat stimulus), thermal hyperalgesia (mice hindpaws [1])	foot withdrawal response decrease (mice hindpaws [2]; [4])	onset of heat hyperalgesia (mice hindpaws [1]; hindpaw injection 100 ng/10 μl)	return of heat hyperalgesia to control values (mice hindpaws [1]; hindpaw injection 100 ng/10 μl)	foot withdrawal response to von Frey hair filaments reduced to, compared to control (mice hindpaws [2]; [4])	onset of mechanical hyperalgesia (mice hindpaws [2]; hindpaw injection 100 ng/10 μl)	return of mechanical hyperalgesia to control values (mice hindpaws [2]; hindpaw injection 100 ng/10 μl)	cells that respond to capsaicin showing potentiation of the capsaicin response ([3]; FL at 10 and 100 ng/ml, adult DRG neurons)	mean fold increase in TRPV1 response, ΔFarea [3, 5]	mean fold increase in TRPV1 response, ΔFpeak [3, 5]
COc1cccc(NC(=O)/C=C/c2ccc(Cl)cc2)c1 [sb-366791]	did not show any change in the foot withdrawal response	–	–	–	–	–	–	–	–	–	–
NGF: nerve growth factor, used as positive control	–	25%	30%	–	–	–	–	–	–	–	–
FL: cytokine which is a natural ligand of the FLT3 receptor (protein, UniProt P49771 27-235, looked up) Fms-related tyrosine kinase 3 …: TQDCSFQHSPISSDFAVKIRELSDYLLQDYPVTVASNLQDEELCGGLWRLVLAQRWMERLKTVAGSKMQGLLERVNTEIHFVTKCAFQPPPSCLRFVQTNISRLLQETSEQLVALKPWITRQNFSRCLELQCQPDSSTLPPPWSPRPLEATAPTAPQPPLLLLLLLPVGLLLLAAAWCLHWQRTRRRTPRPGEQVPPVPSPQDLLLVEH	–	around 30%	–	within one/two hours	6 days	50%	within one/two hours	6 days	56%	≈ 512%	212%
